Test results published in paper PMC9292107.

Biological target: caveolin-3 (Cav3) (mouse (endogenous in cardiomyocytes)) (UniProt P51637)
Test: co-IP; endogenous proteins in extracts of mouse cardiomyocytes / heart (WT; for actin-Cav3 also SM22α KO); IgG as negative control; Western blot

Sequence of UniProt P51637 (P51637 whole entry): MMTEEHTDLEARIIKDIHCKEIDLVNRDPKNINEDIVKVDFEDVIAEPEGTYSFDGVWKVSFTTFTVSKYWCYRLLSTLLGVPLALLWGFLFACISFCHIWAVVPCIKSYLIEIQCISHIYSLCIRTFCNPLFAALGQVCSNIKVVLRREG

reduction of the co-precipitate in SM22α KO against WT cardiomyocytes: 34%
Substance: α-actin (from UniProt P68033 1-377) (natural protein)
